Laboratory results: US20110142849A1 (IRM, published 2011)

Experiments:
Test in all cases: specificity ELISA on coated antigen (88 ng per well), antibody at 2 µg/mL, ABS650
hFGFR4 = target: T1, hFGFR4 (human, UniProt P22455)
T1 construct: panel antigen of the specificity ELISA
T1 sequence (antigen, looked up): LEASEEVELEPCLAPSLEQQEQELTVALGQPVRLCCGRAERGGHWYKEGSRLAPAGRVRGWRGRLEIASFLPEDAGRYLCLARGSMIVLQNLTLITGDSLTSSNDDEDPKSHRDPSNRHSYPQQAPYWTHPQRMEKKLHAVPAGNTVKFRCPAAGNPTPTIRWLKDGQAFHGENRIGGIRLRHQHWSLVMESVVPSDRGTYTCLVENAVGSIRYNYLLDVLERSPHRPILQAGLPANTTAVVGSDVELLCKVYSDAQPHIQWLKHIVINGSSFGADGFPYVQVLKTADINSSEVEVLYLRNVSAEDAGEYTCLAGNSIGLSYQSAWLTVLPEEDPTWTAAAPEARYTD
Description: (§1) For specificity ELISAs on purified human and mouse IgGs, a 384-well plate was coated with a panel of purified human or mouse antigens at 88 ng per well and incubated overnight at 4° C. The plate was blocked and washed as described above, then 22 μL of purified mouse or human anti-PCSK9 antibody diluted to 2 μg/mL in PBS was added to each well. The plate was incubated for 1 hr at 37° C. then washed with PBST. Anti-mouse Fc antibody (Jackson ImmunoResearch Labs #115-035-071) or anti-human kappa antibody (Sigma #A7164) conjugated to HRP was diluted 1:5000 in PBS (25 μL) and added to each well. The plate was incubated for 1 hr at room temperature, then washed and developed as described above.
(§2) In order to test whether the antigen specificity of the parental mouse antibody LFU720 was retained in the final Humaneered™ IgGs, LGT209, LGT210 and LGT211, binding of the antibodies to a panel of human and mouse antigens (as well as human PCSK9) was tested in an ELISA assay.

hGITR = target: T2, hGITR (human, UniProt Q9Y5U5)
T2 construct: panel antigen of the specificity ELISA
T2 sequence (antigen, looked up): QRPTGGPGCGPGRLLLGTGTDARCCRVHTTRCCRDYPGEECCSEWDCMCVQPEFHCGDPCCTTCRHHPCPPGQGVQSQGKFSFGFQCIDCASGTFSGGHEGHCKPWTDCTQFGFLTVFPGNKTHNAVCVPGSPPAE
Description: as §1, §2

hTrkB = target: T3, hTrkB (human, UniProt Q16620)
T3 construct: panel antigen of the specificity ELISA
Description: as §1, §2

hIL-12RB1 = target: T4, hIL-12RB1 (human, UniProt P42701)
T4 construct: panel antigen of the specificity ELISA
Description: as §1, §2

hRspo-2 = target: T5, hRspo-2 (human, UniProt Q6UXX9)
T5 construct: panel antigen of the specificity ELISA
Description: as §1, §2

hβ-Klotho = target: T6, hβ-Klotho (human, UniProt Q86Z14)
T6 construct: panel antigen of the specificity ELISA
T6 sequence (antigen, looked up): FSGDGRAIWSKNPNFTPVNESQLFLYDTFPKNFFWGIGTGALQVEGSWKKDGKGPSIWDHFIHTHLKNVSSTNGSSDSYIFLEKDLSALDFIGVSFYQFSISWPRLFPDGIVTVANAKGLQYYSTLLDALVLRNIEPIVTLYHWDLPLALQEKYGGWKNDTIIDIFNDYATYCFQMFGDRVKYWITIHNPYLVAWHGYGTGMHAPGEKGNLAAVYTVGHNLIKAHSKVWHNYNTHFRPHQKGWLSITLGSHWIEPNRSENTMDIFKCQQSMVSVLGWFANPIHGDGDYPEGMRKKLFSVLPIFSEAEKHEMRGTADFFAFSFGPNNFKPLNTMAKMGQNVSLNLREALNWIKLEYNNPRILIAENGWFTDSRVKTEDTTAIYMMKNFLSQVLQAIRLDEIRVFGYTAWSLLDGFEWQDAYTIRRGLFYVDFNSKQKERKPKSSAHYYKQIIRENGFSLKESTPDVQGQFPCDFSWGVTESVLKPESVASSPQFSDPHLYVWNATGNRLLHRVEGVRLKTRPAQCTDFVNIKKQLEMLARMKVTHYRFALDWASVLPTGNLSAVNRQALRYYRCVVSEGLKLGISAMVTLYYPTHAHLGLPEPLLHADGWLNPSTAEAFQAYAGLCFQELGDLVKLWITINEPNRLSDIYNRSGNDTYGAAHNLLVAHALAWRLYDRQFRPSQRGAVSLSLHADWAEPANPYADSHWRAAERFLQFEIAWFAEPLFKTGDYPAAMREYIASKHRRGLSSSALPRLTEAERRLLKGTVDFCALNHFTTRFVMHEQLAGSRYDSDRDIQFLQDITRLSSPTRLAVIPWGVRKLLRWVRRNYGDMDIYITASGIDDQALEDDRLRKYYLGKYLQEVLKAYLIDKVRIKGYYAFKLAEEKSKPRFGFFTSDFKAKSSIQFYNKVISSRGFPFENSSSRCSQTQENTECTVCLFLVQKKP
Description: as §1, §2

hNotch-3 NRR = target: T7, hNotch-3 NRR (human, UniProt Q9UM47)
T7 construct: panel antigen of the specificity ELISA
T7 sequence (antigen, looked up): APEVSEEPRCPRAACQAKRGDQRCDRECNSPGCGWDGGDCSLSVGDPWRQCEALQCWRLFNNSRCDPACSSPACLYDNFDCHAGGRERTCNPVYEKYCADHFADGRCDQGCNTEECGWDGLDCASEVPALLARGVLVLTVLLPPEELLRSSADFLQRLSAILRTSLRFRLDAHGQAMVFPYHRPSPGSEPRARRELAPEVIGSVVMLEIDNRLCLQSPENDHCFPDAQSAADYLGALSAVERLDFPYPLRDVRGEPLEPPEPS
Description: as §1, §2

hAgr2 = target: T8, hAgr2 (human, UniProt O95994)
T8 construct: panel antigen of the specificity ELISA
T8 sequence (antigen, looked up): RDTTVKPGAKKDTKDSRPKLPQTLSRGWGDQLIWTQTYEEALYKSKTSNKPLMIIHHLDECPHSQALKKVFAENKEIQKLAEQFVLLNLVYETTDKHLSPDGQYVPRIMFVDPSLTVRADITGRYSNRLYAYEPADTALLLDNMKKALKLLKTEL
Description: as §1, §2

Measured: binding result

T3 sequence (Q16620 32-430 limits assumed): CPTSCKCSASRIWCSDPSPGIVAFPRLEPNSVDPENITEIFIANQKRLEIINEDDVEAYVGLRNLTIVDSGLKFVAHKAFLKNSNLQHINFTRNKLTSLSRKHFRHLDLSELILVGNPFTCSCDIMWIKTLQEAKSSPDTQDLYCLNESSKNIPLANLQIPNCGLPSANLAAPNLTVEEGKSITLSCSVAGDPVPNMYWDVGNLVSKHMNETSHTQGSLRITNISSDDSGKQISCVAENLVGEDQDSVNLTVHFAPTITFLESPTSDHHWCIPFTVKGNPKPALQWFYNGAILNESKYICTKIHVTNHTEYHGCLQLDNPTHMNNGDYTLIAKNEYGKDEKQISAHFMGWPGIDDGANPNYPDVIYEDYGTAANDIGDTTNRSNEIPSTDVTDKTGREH
T5 sequence (Q6UXX9 22-243 limits assumed): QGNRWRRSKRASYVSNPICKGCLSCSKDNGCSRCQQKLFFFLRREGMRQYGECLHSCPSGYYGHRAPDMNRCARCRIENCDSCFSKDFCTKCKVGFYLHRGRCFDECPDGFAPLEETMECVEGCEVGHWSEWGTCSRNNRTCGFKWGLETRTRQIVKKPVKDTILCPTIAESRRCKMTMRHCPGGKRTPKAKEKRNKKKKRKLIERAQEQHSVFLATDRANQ

B1: NVP-LFU720 (antibody, V domains shown)
VH: EVQLQQSGAELMKPGASVKLSCTASGFNIKDMYMSWVRQRPEQGLEWIGRIDPANGHTNYDPKFQAKATITTDTSSKTAYLHLSSLTSEDTAVYYCARSYYYYAMDYWGQGTSVTVSS
VL: QIVLTQSPAIMSASPGEKVTMTCSASSSVSYMHWYQQKPGSSPRLWIYLTFNLASGVPARFSGSGSGTSYSLSISSMEAEDAATYYCLQWSSDPPTFGSGTKLEIK
notes: Murine anti-human Pcsk9 IgG1-kappa monoclonal antibody from a hybridoma; also called 5P20; NVP-LFU720-AX-1
no binding (tested: 2 µg/mL): all assays above

B2: NVP-LGT211 (antibody, human IgG1, V domains shown)
VH: QVQLVQSGAEVKKPGASVKVSCKASGYTFSTMYMSWVRQAPGQGLEWMGRIDPANEHTNYAQKFQGRVTMTRDTSISTAYMELSRLTSDDTAVYYCARSYYYYAMDYWGQGTLVTVSS
VL: QIVLTQSPATLSVSPGERATLSCRASQSVSYMHWYQQKPGQAPRLLIYGVFRRATGIPDRFSGSGSGTDFTLTIGRLEPEDFAVYYCLQWSSDPPTFGQGTKLEIKR
notes: Silent human IgG1 kappa; also called pSR74 (Vh) + pJG10 (Vk); pSR074 + pJG10
no binding (tested: 2 µg/mL): all assays above
